# IntAct's records for PubMed 15572661
# B1: Androgen receptor (Homo sapiens), P10275 (parent)
# chain: MEVQLGLGRVYPRPPSKTYRGAFQNLFQSVREVIQNPGPRHPEAASAAPPGASLLLLQQQQQQQQQQQQQQQQQQQQQQQETSPRQQQQQQGEDGSPQAHRRGPTGYLVLDEEQQPSQPQSALECHPERGCVPEPGAAVAASKGLPQQLPAPPDEDDSAAPSTLSLLGPTFPGLSSCSADLKDILSEASTMQLLQQQQQEAVSEGSSSGRAREASGAPTSSKDNYLGGTSTISDNAKELCKAVSVSMGLGVEALEHLSPGEQLRGDCMYAPLLGVPPAVRPTPCAPLAECKGSLLDDSAGKSTEDTAEYSPFKGGYTKGLEGESLGCSGSAAAGSSGTLELPSTLSLYKSGALDEAAAYQSRDYYNFPLALAGPPPPPPPPHPHARIKLENPLDYGSAWAAAAAQCRYGDLASLHGAGAAGPGSGSPSAAASSSWHTLFTAEEGQLYGPCGGGGGGGGGGGGGGGGGGGGGGGEAGAVAPYGYTRPPQGLAGQESDFTAPDVWYPGGMVSRVPYPSPTCVKSEMGPWMDSYSGPYGDMRLETARDHVLPIDYYFPPQKTCLICGDEASGCHYGALTCGSCKVFFKRAAEGKQKYLCASRNDCTIDKFRRKNCPSCRLRKCYEAGMTLGARKLKKLGNLKLQEEGEASSTTSPTEETTQKLTVSHIEGYECQPIFLNVLEAIEPGVVCAGHDNNQPDSFAALLSSLNELGERQLVHVVKWAKALPGFRNLHVDDQMAVIQYSWMGLMVFAMGWRSFTNVNSRMLYFAPDLVFNEYRMHKSRMYSQCVRMRHLSQEFGWLQITPQEFLCMKALLLFSIIPVDGLKNQKFFDELRMNYIKELDRIIACKRKNPTSCSRRFYQLTKLLDSVQPIARELHQFTFDLLIKSHMVSVDFPEMMAEIISVQVPKILSGKVKPIYFHTQ
# Variants of: B1
# Settings: with daxx_human DAXX
row,effect of a mutation on the interaction,Variant
1,decreasing interaction strength,K388R;K521R
